Results published in the supplement of paper PMC6757056.
± gives the standard deviation of the averaged measurements.

B1: library; a variant is named by its letters at N, in order (parent)
chain: GCUGUCACCGAGAAACUGUGAAGUAUAUCUUAAACCUGGGCACUUAAAAGAUAUAUGGAGUUAGUAGUGCAACCUGCUCGGUCUGAUGAGUCCNNNNNNGGACGAAACAGC

Tests used:
cyclic di-GMP [1] = variants of: B1; experiment: normalized RNA/DNA level without ligand (relative to sTRSVctl = 100) (log10 (% of sTRSVctl)); HEK293T; ligand: cyclic di-GMP (c-di-GMP-II aptamer); higher = less ribozyme self-cleavage, higher mRNA level; details: reporter: mCherry (pCS4076), ligand present: no
Method in brief: (§1)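 Library plasmids carrying ribozyme switches linked to mCherry, or to eGFP in some ligand experiments, were transfected into HEK293T at 4 µg per 6-well well, with any ligand added 1 h earlier. Seventy-two hours on, total RNA was extracted with EDTA and reverse-transcribed, amplified, barcoded and sequenced. RNA level was RNA over DNA reads normalized to a spiked-in non-cleaving sequence or to the top sequences, then scaled and log-transformed. The top set was 25 sequences, the transform was ×100 and log10, and sequences needed ≥100 DNA reads.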

cyclic di-GMP [2] = variants of: B1; experiment: normalized RNA/DNA level with ligand (relative to sTRSVctl = 100) (log10 (% of sTRSVctl)); HEK293T; ligand: cyclic di-GMP (c-di-GMP-II aptamer); ligand concentration (+) RNA-Seq: 1 mM; higher = less ribozyme self-cleavage, higher mRNA level; details: reporter: mCherry (pCS4076), ligand present: yes
Method in brief: as §1

| Variant | normalized RNA/DNA level without ligand (log10) (cyclic di-GMP [1]) | normalized RNA/DNA level with ligand (log10) (cyclic di-GMP [2]) |
| --- | --- | --- |
| GCUGUCACCGAGAAACUGUGAAGUAUAUCUUAAACCUGGGCACUUAAAAGAUAUAUGGAGUUAGUAGUGCAACCUGCUCGGUCUGAUGAGUCCUGAGUAGGACGAAACAGC | 1.73 ± 0.032 | 1.85 ± 0.15 |
| GCUGUCACCGAGAAACUGUGAAGUAUAUCUUAAACCUGGGCACUUAAAAGAUAUAUGGAGUUAGUAGUGCAACCUGCUCGGUCUGAUGAGUCCUGAGUUGGACGAAACAGC | 1.67 ± 0.017 | 1.8 ± 0.091 |
| GCUGUCACCGAGAAACUGUGAAGUAUAUCUUAAACCUGGGCACUUAAAAGAUAUAUGGAGUUAGUAGUGCAACCUGCUCGGUCUGAUGAGUCCGGAGUCGGACGAAACAGC | 1.55 ± 0.046 | 1.79 ± 0.051 |
| GCUGUCACCGAGAAACUGUGAAGUAUAUCUUAAACCUGGGCACUUAAAAGAUAUAUGGAGUUAGUAGUGCAACCUGCUCGGUCUGAUGAGUCCUGAUCCGGACGAAACAGC | 1.89 ± 0.055 | 1.98 ± 0.075 |
| GCUGUCACCGAGAAACUGUGAAGUAUAUCUUAAACCUGGGCACUUAAAAGAUAUAUGGAGUUAGUAGUGCAACCUGCUCGGUCUGAUGAGUCCUGAUCAGGACGAAACAGC | 1.76 ± 0.073 | 1.88 ± 0.11 |
| GCUGUCACCGAGAAACUGUGAAGUAUAUCUUAAACCUGGGCACUUAAAAGAUAUAUGGAGUUAGUAGUGCAACCUGCUCGGUCUGAUGAGUCCAGAUCAGGACGAAACAGC | 1.59 ± 0.076 | 1.74 ± 0.081 |
| GCUGUCACCGAGAAACUGUGAAGUAUAUCUUAAACCUGGGCACUUAAAAGAUAUAUGGAGUUAGUAGUGCAACCUGCUCGGUCUGAUGAGUCCAGAUCCGGACGAAACAGC | 1.81 ± 0.016 | 1.89 ± 0.038 |
| GCUGUCACCGAGAAACUGUGAAGUAUAUCUUAAACCUGGGCACUUAAAAGAUAUAUGGAGUUAGUAGUGCAACCUGCUCGGUCUGAUGAGUCCGGAUCAGGACGAAACAGC | 1.63 ± 0.02 | 1.77 ± 0.13 |
| GCUGUCACCGAGAAACUGUGAAGUAUAUCUUAAACCUGGGCACUUAAAAGAUAUAUGGAGUUAGUAGUGCAACCUGCUCGGUCUGAUGAGUCCGGAUCCGGACGAAACAGC | 1.86 ± 0.058 | 1.93 ± 0.055 |
| GCUGUCACCGAGAAACUGUGAAGUAUAUCUUAAACCUGGGCACUUAAAAGAUAUAUGGAGUUAGUAGUGCAACCUGCUCGGUCUGAUGAGUCCCGAGUAGGACGAAACAGC | 1.7354 ± 0.0011 | 1.79 ± 0.11 |
| GCUGUCACCGAGAAACUGUGAAGUAUAUCUUAAACCUGGGCACUUAAAAGAUAUAUGGAGUUAGUAGUGCAACCUGCUCGGUCUGAUGAGUCCCGAGUGGGACGAAACAGC | 1.7 ± 0.049 | 1.83 ± 0.15 |
| GCUGUCACCGAGAAACUGUGAAGUAUAUCUUAAACCUGGGCACUUAAAAGAUAUAUGGAGUUAGUAGUGCAACCUGCUCGGUCUGAUGAGUCCCGAGUCGGACGAAACAGC | 1.76 ± 0.065 | 1.88 ± 0.12 |
| GCUGUCACCGAGAAACUGUGAAGUAUAUCUUAAACCUGGGCACUUAAAAGAUAUAUGGAGUUAGUAGUGCAACCUGCUCGGUCUGAUGAGUCCCGAGUUGGACGAAACAGC | 1.72 ± 0.08 | 1.84 ± 0.094 |
| GCUGUCACCGAGAAACUGUGAAGUAUAUCUUAAACCUGGGCACUUAAAAGAUAUAUGGAGUUAGUAGUGCAACCUGCUCGGUCUGAUGAGUCCCGAUCCGGACGAAACAGC | 1.82 ± 0.026 | 1.9 ± 0.088 |
| GCUGUCACCGAGAAACUGUGAAGUAUAUCUUAAACCUGGGCACUUAAAAGAUAUAUGGAGUUAGUAGUGCAACCUGCUCGGUCUGAUGAGUCCCGAUCAGGACGAAACAGC | 1.6 ± 0.026 | 1.74 ± 0.12 |
| GCUGUCACCGAGAAACUGUGAAGUAUAUCUUAAACCUGGGCACUUAAAAGAUAUAUGGAGUUAGUAGUGCAACCUGCUCGGUCUGAUGAGUCCCGAUAGGGACGAAACAGC | 1.7 ± 0.056 | 1.87 ± 0.12 |
| GCUGUCACCGAGAAACUGUGAAGUAUAUCUUAAACCUGGGCACUUAAAAGAUAUAUGGAGUUAGUAGUGCAACCUGCUCGGUCUGAUGAGUCCCGAUACGGACGAAACAGC | 1.61 ± 0.033 | 1.77 ± 0.084 |
| GCUGUCACCGAGAAACUGUGAAGUAUAUCUUAAACCUGGGCACUUAAAAGAUAUAUGGAGUUAGUAGUGCAACCUGCUCGGUCUGAUGAGUCCAGAUACGGACGAAACAGC | 1.64 ± 0.029 | 1.79 ± 0.12 |
| GCUGUCACCGAGAAACUGUGAAGUAUAUCUUAAACCUGGGCACUUAAAAGAUAUAUGGAGUUAGUAGUGCAACCUGCUCGGUCUGAUGAGUCCAGAUAGGGACGAAACAGC | 1.53 ± 0.11 | 1.71 ± 0.086 |
| GCUGUCACCGAGAAACUGUGAAGUAUAUCUUAAACCUGGGCACUUAAAAGAUAUAUGGAGUUAGUAGUGCAACCUGCUCGGUCUGAUGAGUCCAGAUAUGGACGAAACAGC | 1.61 ± 0.046 | 1.78 ± 0.14 |
| GCUGUCACCGAGAAACUGUGAAGUAUAUCUUAAACCUGGGCACUUAAAAGAUAUAUGGAGUUAGUAGUGCAACCUGCUCGGUCUGAUGAGUCCAGAGUUGGACGAAACAGC | 1.6 ± 0.016 | 1.8 ± 0.14 |
| GCUGUCACCGAGAAACUGUGAAGUAUAUCUUAAACCUGGGCACUUAAAAGAUAUAUGGAGUUAGUAGUGCAACCUGCUCGGUCUGAUGAGUCCAGAGUAGGACGAAACAGC | 1.66 ± 0.029 | 1.73 ± 0.081 |
| GCUGUCACCGAGAAACUGUGAAGUAUAUCUUAAACCUGGGCACUUAAAAGAUAUAUGGAGUUAGUAGUGCAACCUGCUCGGUCUGAUGAGUCCAGAGUCGGACGAAACAGC | 1.6 ± 0.02 | 1.76 ± 0.097 |
| GCUGUCACCGAGAAACUGUGAAGUAUAUCUUAAACCUGGGCACUUAAAAGAUAUAUGGAGUUAGUAGUGCAACCUGCUCGGUCUGAUGAGUCCAGAGUGGGACGAAACAGC | 1.72 ± 0.029 | 1.8 ± 0.09 |
| GCUGUCACCGAGAAACUGUGAAGUAUAUCUUAAACCUGGGCACUUAAAAGAUAUAUGGAGUUAGUAGUGCAACCUGCUCGGUCUGAUGAGUCCUGAUAAGGACGAAACAGC | 1.633 ± 0.011 | 1.8 ± 0.089 |
| GCUGUCACCGAGAAACUGUGAAGUAUAUCUUAAACCUGGGCACUUAAAAGAUAUAUGGAGUUAGUAGUGCAACCUGCUCGGUCUGAUGAGUCCGGAUACGGACGAAACAGC | 1.67 ± 0.049 | 1.78 ± 0.16 |
